This note sets out measurements from the nanobody polyreactivity screen of Harvey et al. (2022).

The nature of this data set: yeast display, Sf9 membrane polyspecificity reagent, FACS + sequencing; frameworks hold sequencing errors. Summed up: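 A nanobody's polyreactivity label depends on the gate it was sorted from. Yeast display cells were stained with 10% biotinylated, detergent-solubilized Sf9 membrane reagent for 1 hour at 4 °C, enriched on streptavidin microbeads and sorted by FACS. The low and high (top ~1%) gates were set on anti-HA fluorescence for expression and streptavidin fluorescence for reagent binding.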
With “QVQLVESGGRIVQAGGSLRLSCAASGRTFLYNVMGWSRQAPGKERELVAAITSGGRTYYADSVKGRFTISRDNAKNTVYLQMNSLKPEDTAVYYCNADRQLYIYRYDYWGQGTQVTVSS”, the “polyreactivity (PSR sort gate)” value is “low polyreactivity”. Regarding “QVQLVESGGRLVKAGASHRLSCAASAITCGRNTRGWYRQAPGKARELVAAIDSGVNTYADSVKGRFTISRDNAKYTVYLQMTSLKPEDTSVYYWAFVGGEFSSYGYWGLGTQVTVSS”, the “polyreactivity (PSR sort gate)” value is “low polyreactivity”. Consider “QVQLVESGGRLVQAGASLRLSCAASASIFASNAMGWYRHEPGKERELVAAINSGDSTNYADSVKGRFTISRDNAKNTVYLQMNSLKPEDTAVYYCARGLEERYDYWGQGTQVTVSS”, for which the “polyreactivity (PSR sort gate)” value is given as “low polyreactivity”. Turning to “QVQLVESGGRLVQAGASLRLSCDASGRIFQWYAIGWYRQAPGKVRELVAAITSGSSTYYADSVKGRFTISRDNAKNSVYLQMNSLKPEDTAVYYCAAEAVYVSSWYDDYYYFRYDYWGQGTQVTVSS”, the “polyreactivity (PSR sort gate)” value is “high polyreactivity”. The same measure for “QVQLVESGGRLVQAGCSLRLSCAASGSIFDVYAMGWYRPAPGKERELVAAISRGGRTYYADSVKGRFTISRDNAKNTVYLQMNSLKPEDTAVYYCAAVTRLDGNMDYWGQGTQVTVSS”: “high polyreactivity”; for “QVQLVESGGRLVQAGFSLRLSCAASGSTFRWYALGWYRQAPGIESELVAAITSGGRTYYADSVKGRFTISRDNAKNPVYLQMSSLKPEATAGYYCAAQYADRGKRDYWGQGTQVTGSS”: “high polyreactivity”. The same measure for “QVQLVESGGRLVQAGGILRLSCAASGFIFLSYAMGWYRQAPGKERELVAAITSNGGSTYYADSVKGRFTISRDNAKNTVYLQMNSLKPEDTSVYYCAARFSQGKVRMGYWGQGTQVTVSS”: “high polyreactivity”; for “QVQLVESGGRLVQAGGILRLSCAASGRIFSANAMGWYRQAPGKERELVAAITSSGGSTYYADSVKGRFTISRDNAKNTVYLQMNSLKPEDTAVYYCAAESAAYGGGTSDAGYESDYLGQGTQVTVSS”: “low polyreactivity”. The same measure for “QVQLVESGGRLVQAGGSIRLSCAASGSTLNVNAMGGYRQAPGKERELVAAITSGGSTYYADSVKGRFTISRDNAKNTVYLQMNSLKPEDTAVYYCNKRRSWRPTYPIGGSGFYYWGQGTQVTVSS”: “low polyreactivity”. For “QVQLVESGGRLVQAGGSLRISSAASGFIFYKYTMGWYRQAPGKERELVAAITRSGGSTYYADSVKGRCTISRDNAKNTVYLQMNSLKPEDTAVYYCAATQSFRRNYDYWGQGTQVTVSS”, the “polyreactivity (PSR sort gate)” value is recorded as “high polyreactivity”. As for “QVQLVESGGRLVQAGGSLRLLGAASGRIIYYNAMGWYRPAPGKERELVAAISSIGGSTYADSVKGRFTISRDNAKNTVYLQMNSLKPEDTAVYYCAADGFKRLYTQVAHVRYDYWGQGTQVTVSS”, the entry is “low polyreactivity”. Regarding “QVQLVESGGRLVQAGGSLRLSCAAAAITFYLYAMGRYRQAPGKERELVAAISSSGGSTYYADSVKGRFTISRDNAKNTVYLQINSLKPEDTAVYYCNARRRTVPYRYDYWGQGTQVTVSS”, the “polyreactivity (PSR sort gate)” value is reported as “high polyreactivity”.

For the sequence “QVQLVESGGRLVQAGGSLRLSCAASGFIFRSYAMGWYRQAPGKERELVAAISSRGGSTSYADSVKGRFTISRDNAKNTVYLQLNSLKPEDTAVYYCNAYQYPGYGNNYWGQGSQVTVSS”, the “polyreactivity (PSR sort gate)” value was “high polyreactivity”.

On to “QVQLVESGGRLVQAGGSLRLSCAASGFIFRYNAMGWYRQAPGKERELVARITSSGGTTYYADSVKGRFTISRDSSKNTVYLQMNSLKPEDTAVYYCNARKVRYPYGWYDYWGQGTQVTVSS”, for which the “polyreactivity (PSR sort gate)” value is on record as “high polyreactivity”. Turning to “QVQLVESGGRLVQAGGSLRLSCAASGFSFGGNVIGWYRQAPGKDREFVAAITDGDGSTYYADSVKGRFTISRDNAKNTVYLQMNSLKPEDTSVYYCAGDVYYADVYPVEYWGQGTQVTVSS”, the “polyreactivity (PSR sort gate)” value is recorded as “high polyreactivity”.

As for “QVQLVESGGRLVQAGGSLRLSCAASGFTFRRYAMGWYRQAPGKERELVAVITTAGSTNYADSVKGRFTISRDNAKNTVYLQMNTLKPEDTAVYYCATDNGTRKRRYDYWGQGTQVTVSS”, the “polyreactivity (PSR sort gate)” value is listed as “low polyreactivity”. Take “QVQLVESGGRLVQAGGSLRLSCAASGFTFRYYDMRWYRPAPGKVRELVAAISSGGSTDYADSVKGRFTISRDNAKNTVYLQMNSLKPEDTAVYYCAADWWVVYTYDYWGRGTQVTVSS”: the “polyreactivity (PSR sort gate)” value was “low polyreactivity”. With “QVQLVESGGRLVQAGGSLRLSCAASGFTFSHYAMGWYRQAPGKERELVAAISGRGGSTYYADSVKGRFTISRDNAKNTVYLPMNSLKPEDTAVYYCAARPSTYYTGHDYWGQGTQVTVSS”, the “polyreactivity (PSR sort gate)” value was “high polyreactivity”. The same measure for “QVQLVESGGRLVQAGGSLRLSCAASGFTFSSYAMGWYRQAPGKERELVAAISTRCGSTYYADSVKGRFTISRDNAKNTVYLQMNSLKPEDTAVYYCATGCRGGRRYEYWGQGTQVTVSS”: “low polyreactivity”; for “QVQLVESGGRLVQAGGSLRLSCAASGGIIRGYAMGWYRQAPGKEWELVATIRSSGRTNYADSVKGRFTISRDNEKNTVYFQMNSLKQEDTAVYYCAAVVRQYGFDYWGQGTQVTVSS”: “low polyreactivity”. As for “QVQLVESGGRLVQAGGSLRLSCAASGGTFRVYAMGWNRQAPGKEIEFVAAISAHGGRTYYADSVKGRFTISRDNAQNTVYLQLNSLKPEDTAVYYFYNRLPNSQDGTSAHYTYYSWGQGTQVTVSS”, the entry is “low polyreactivity”; as for “QVQLVESGGRLVQAGGSLRLSCAASGIIFPYNTMGWYRQSPGKERELVASIDDGGSTNYADSVKGRFTISRDNAKNTVYLQMNSLKPEDTAVYYCNADLFFIYVRQPGYDYWGQGTQVTVSS”, “low polyreactivity”; as for “QVQLVESGGRLVQAGGSLRLSCAASGITFDLYDMGWYRQAPGKVRELVAAITDADSTYYADSVKGRFTMSRDNEKNTVKLQMTSLIPEDTAVYYCAADFFYSVYSGHYDYWGQGTQVTVSS”, “low polyreactivity”. The same measure for “QVQLVESGGRLVQAGGSLRLSCAASGITFLKYALGWYRQAPGKERELVAAISRRGGSTYYADSVKGRFTISRDNAMNTVYLEMNSLKPSDTAVYYCAARTVRGTWSQNDYCGQGTQVTVSS”: “low polyreactivity”. Regarding “QVQLVESGGRLVQAGGSLRLSCAASGITFVYYAMGWYRQAPGKERELVASISSGGSTYYADSVKGRFTISRDNAKNTVYLQMNSLKPEDTAVYDCAAPTGWYPAYGEYEYWGQGTQVTVSS”, the “polyreactivity (PSR sort gate)” value is “low polyreactivity”. The same measure for “QVQLVESGGRLVQAGGSLRLSCAASGITFYDYAMGWYRQAPGKERELVAAITWNGGDTYYADSVKGRFTISRDNAKNTVYLQMHSLKPEDTAVYYCNATRHYFGGFHYEYYYWGQGTQVTVSS”: “low polyreactivity”; for “QVQLVESGGRLVQAGGSLRLSCAASGRIFARYAMGWYRQAPGKERELLASINSGGNTYYADSVKGRFTISRDNAKNTVYLQMNSLKPEDTAVYYCAAVVGRRPSSRSRFEYDYWGQGTQVTVSS”: “low polyreactivity”; for “QVQLVESGGRLVQAGGSLRLSCAASGRIFRVYAMGWYRQAPGKERELVAAISSRGGRTYYADSVKGRFTISRDNAKNTVYLQMNSLKPEDTAVYFCAADGRSSSRTTSRYDYWGQGTQVTVSS”: “high polyreactivity”.

Consider “QVQLVESGGRLVQAGGSLRLSCAASGRIYTPYAMGWYRQAPGTERELVAAISTIGGTTYADSVKGRFTISRDNAKNTVYLQMNSLKPEDTAVYYCNTRRTGRRSTTPGDYWGQGTQVTVSS”, for which the “polyreactivity (PSR sort gate)” value is “high polyreactivity”. Take “QVQLVESGGRLVQAGGSLRLSCAASGRNFGLYAMGWYRQAPGKEREFVAAIRWIGGGTYYADSVKGRFTISRDNAKNTVYLQMNSLKPEDTAVYYCAARLSVAWVGYDYWGQGTQVTVSS”: the “polyreactivity (PSR sort gate)” value is on record as “low polyreactivity”. As for “QVQLVESGGRLVQAGGSLRLSCAASGRTFGYYAMGWYRQAPGQERELVAAITESGGSTYYSDSVKGRFTISRDNAMNTVYLQMNSLKPEDTAVYYFASTHFVKGDYWGQGTQVTVSS”, the entry is “high polyreactivity”; as for “QVQLVESGGRLVQAGGSLRLSCAASGRTFQGNAMGWSRQAPGKERELVAAISIRSGRTYYADSVKGRFTISRDNAKNTVYLQMNSLKPEDTAVYYCAAYRGKVRYDYWGQGTQVTVSS”, “high polyreactivity”; as for “QVQLVESGGRLVQAGGSLRLSCAASGRTFRSHTKGWYRKAPGKERELVAAIIIGGSTYYADTVKGRFTISRDNAKNTVYLQMNSLKPEDSAVYYCARFYRYSRDYWGQGTQVTVSS”, “high polyreactivity”. The same measure for “QVQLVESGGRLVQAGGSLRLSCAASGRTFRSYAMGWYRPAPGKEWELVAAIRTSDGITYYADSVKGRFTISRDNAKNTVDLQMNSLQPEDTAVYYCAAENWYKYDYWGQGTQVTVSS”: “low polyreactivity”; for “QVQLVESGGRLVQAGGSLRLSCAASGRTFSFYAMGWYRQAPGQERELVAGIDWDDGSTSYADSVKGRFTISRDNAKNSVYLQMNSLKPEDTAVYYCAADIGYDDYNDYDYWGQGTQVTVSS”: “low polyreactivity”. The same measure for “QVQLVESGGRLVQAGGSLRLSCAASGRTFSVYAMGWYRQAPGKERELVAGITSGGSTNYADSVKGRFTISRDNAKNTVYLQMNSRKPEDTAVYYCAAEIVYAAFGFDSIGDYWGQGTQVTVSS”: “low polyreactivity”; for “QVQLVESGGRLVQAGGSLRLSCAASGRTLSSYVIGWYRQAPGKERELVAAITQSTSRTYYADSVKGRFTISRDNAKNTVYLQMHSLKPEDTAVYYCAAEGRFGRKYGYWGQGTQVTVSS”: “low polyreactivity”; for “QVQLVESGGRLVQAGGSLRLSCAASGSIFGFNAMGWYRQAPGKERELVAAIIYGGSTNYADSVKGRFTISRDNEKNTVYLQMNSQKPEDTAVYYCAARLNYIRRGYWGQGTQVTVSS”: “high polyreactivity”. As for “QVQLVESGGRLVQAGGSLRLSCAASGSIFNRYAMGWYRQAPGKERELVARITNRSGNTYYADSVKGRFTISRANAKNTVYLQMNSLKPEDTAVYYCAATKSLGRYNMDYWGQGTQVTVSS”, the “polyreactivity (PSR sort gate)” value is given as “low polyreactivity”.

For “QVQLVESGGRLVQAGGSLRLSCAASGSIFWYNSMGWYRQAPGKERELVAAISRRGGTTYADSVKGRFSISRDNAKYTVYLQLNSLKPEDTAVSYCGTTYTSRYYPYDYWGQGTQVTVSS”, the “polyreactivity (PSR sort gate)” value is on record as “high polyreactivity”. As for “QVQLVESGGRLVQAGGSLRLSCAASGSIFYRYAMGWYRQAPGQERELVATINSDGGDTYYADSVKGRFTISRDNAKNTVSLQMNSLKPEDTAVYYSAKGYYVLYRAWYDSYDYWGQGTQVTVSS”, the entry is “low polyreactivity”.
